{"source": "patent US5935840A", "about": "“Activated recombinant adenovirus proteinases” (priority 1995, dated 1999)", "key": {"[1]": {"tested_on": "(Leu-Arg-Gly-Gly-NH)2 -rhodamine", "test": "Fluorescence assay of proteinase activity of virus and recombinant proteinase preparations", "assay_type": "biochemical", "text": "The nature of the proteinase cofactor(s) was pursued with the aid of the second assay, which utilizes the substrate (Leu-Arg-Gly-Gly-NH)2 -rhodamine. The design of this substrate was based on two facts. (1) It was known that the proteinase present in disrupted Ad2 virions would cleave small peptides with sequence similar to that found at natural cleavage sites in adenovirus virion precursors (Webster et al., 1989). (2) Cleavage of either tetra-peptide sequence from the substituted rhodamine substrate produces a very large increase, up to a 3500-fold, in fluorescence. Under conditions where only a small fraction of the rhodamine substrate is cleaved, the increase in fluorescence is proportional to the amount of proteinase present and to the time of incubation. Thus, the fluorescence assay provides a quantitative method for assessing proteinase activity that is more sensitive convenient and rapid than the gel electrophoresis assay.\nAssays were performed in 400 μl of Assay Buffer (50 mM Tris-HCl, pH 7.4, 25 mM NaCl, 10 mM octylglucoside, and 1 mM dithiothreitol). […] When present, the number of disrupted virus particles was 10^10 and the amount of recombinant proteinase was 0.12 mAU280 nm. […] After 30 minutes at 37° C., a 360 μl aliquot of the reaction was added to 340 μl of Assay Buffer minus octylglucoside, and the increase in fluorescence was measured. The excitation wavelength was 492 nm and the emission wavelength was 523 nm, both with a bandwidth of 5 nm. The change in fluorescence, ΔF, is the magnitude of the fluorescence from the sample minus the magnitude of the fluorescence from an identical solution without enzyme.\nDisrupted virus was obtained as follows: Twice CsCl-banded virus was dialyzed against 10 mM Tris-HCl, pH 8.0, 1mM EDTA and centrifuged at 100,000×g for 1 hour. The pellet was suspended in 10 mM Tris-HCl, pH 6.8, containing 20% (v/v) glycerol and, after three 10 second bursts of sonication, was stored at -20° C. The fluorogenic substrate was synthesized and purified at BNL by Dr. Walter Mangel, using methods similar to those previously described by Dr. Mangel. These methods are described in two U.S. Patents (U.S. Pat. No. 4,557,862 entitled \"Rhodamine derivatives as fluorogenic substrates for proteinases\" by Mangel, W. F., Leytus, S., and L. Helhado; issued Dec. 10, 1985; U.S. patent application Ser. No. 780,552; \"Novel rhodamine derivatives as fluorogenic substrates\" by Mangel, W. F., Leytus, S., and L. Helhado; filing date Sep. 24, 1985) and in other publications by Mangel and co-workers."}, "[2]": {"test": "Solubility of bacterially expressed proteinases (10,000×g supernatant/pellet of lysed E. coli)", "assay_type": "physicochemical", "protocol": "The 23k5 and 23k6 products were tested for solubility as an indication of protein folding. Induced bacteria were harvested and lysed with lysozyme-EDTA, and 10,000×g supernatants were prepared.\nThe expressed proteinase polypeptides were then tested for solubility. Induced bacteria were harvested and lysed with lysozyme-EDTA, and 10,000×g supernatants were prepared. In each case, the majority of the proteinase polypeptide was found in the 10,000×g pellet. When pellet fractions were analyzed by SDS-polyacrylamide gel electrophoresis in the absence of a reducing agent, only a small fraction of the proteinase polypeptides entered the stacking gel, showing that most of the bacterially synthesized proteinase was misfolded and crosslinked through disulfide bonds. This finding was true for both pT7AD23K5 products (23k5a and 23k5b) as well as for the 23k6 polypeptide."}, "[3]": {"tested_on": "Ad2 major core protein precursor, pVII", "test": "Assay of adenovirus proteinase activity in crude extracts: cleavage of [35S]-methionine-labeled pVII (SDS-PAGE, autoradiography)", "assay_type": "biochemical, adenovirus type 2", "protocol": "The expression products of the above-described Ad2 and Ad12 proteinase plasmids were tested for their ability to cleave the Ad2 major core protein precursor, pVII, in crude extracts from adenovirus-infected cells. The extracts were obtained from human cells infected with the temperature-sensitive mutant Ad2 strain, H2ts1, which has a defective proteinase. As described below, adenovirus proteinase activity requires the presence of two cofactors. […] The recombinant proteinases were also characterized by peptide sequence analysis of their amino-termini.\nBacterial extracts were incubated with the radiolabeled substrate (pVII). Samples were removed at different times and analyzed by SDS-PAGE and autoradiography. […] Appearance of the processed VII band and concurrent decrease of the precursor pVII band indicates proteinase activity. Radiolabeled proteins of Ad2 virions were run on the gel to indicate the positions of pVII, VII, and other virion components (lane a). Extracts from Ad2 -infected HeLa cells were assayed as a positive control for proteinase activity (lane b).\nAdenovirus proteinase activity was monitored by the cleavage of [^35 S]-methionine-labeled major core precursor (pVII) essentially as described (Bhatti and Weber, Biochem. Biophys. Res. Comm. 81: 973-797, (1978)). The proteinase substrate was prepared from Ad2Ad2tsl-infected HeLa cells grown at 39° C. and labeled with [^35 S]-methionine (200 μCi/plate) from approximately 28 to 30 hours after infection. Labeled cultures were harvested, washed twice in Phosphate Buffered Saline (PBS), resuspended in 1.0 ml of 10 mM sodium phosphate buffer, pH 7.4, per plate, and sonicated for 40 seconds using a water-cooled sonicator horn (Branson Sonic Power Co., Danbury, Conn.). The extract was then centrifuged at 12,000×g for 10 minutes, and the pellet was resuspended in 10 mM phosphate buffer.\nExtracts of Ad-infected cells, harvested 40 hours after infection at 37° C. were used as a source of viral proteinase. Harvested cultures were washed twice with PBS, resuspended in 10 mM phosphate buffer, frozen and thawed once, and centrifuged at 12,000×g for 10 minutes. Pellets were resuspended in 1.0 ml phosphate buffer, pH 7.4, per 10^6 infected cells and sonicated 4×10 seconds; samples were stored at -70° C. Bacterial extracts were prepared by lysozyme-EDTAtreatment of cultures harvested 2 hours after IPTG induction.\nAssays were performed by mixing equal volumes of [^35 S]-labeled substrate and test extract and incubating at 37° C. At different times, 25 μl samples were removed, mixed with 25 μl of SDS Sample Buffer, heated to 90° C., and analyzed by SDS-polyacrylamide gel electrophoresis and autoradiography as described (Anderson et al., J. Virol. 12: 241-252 (1973).\nRecombinant proteinase polypeptides were assayed for proteinase activity by incubating whole-cell extracts of BL21 (DE3), pT7AD23K5/BL21(DE3), and pT7AD23k6/BL21(DE3), prepared as described above, with extracts of [^35 S]-methionine-labeled Ad2 virion precursor polypeptides. Incubation of the labeled extract at 37° C. for up to 20 hours, alone or with an extract prepared from uninfected HeLa cells, produced little change in the pattern of labeled polypeptides."}, "HEP1DBP": {"tested_on": "HEP1DBP", "test": "Cleavage of artificial protein substrate HEP1DBP (SDS-polyacrylamide gel electrophoresis)", "assay_type": "biochemical", "conditions": "incubated with HEP1DBP alone, no added cofactors", "text": "Recombinant protein substrates that resemble natural virion precursors, such as pVI, can be produced in E. coli by genetic engineering methods similar to those used for expression of recombinant adenovirus proteinase. The recombinant substrate may have an artificial leader sequence that can be removed by proteinase-mediated cleavage. The leader can be designed to aid in purification of the substrate; thus the recombinant substrate can be produced and purified much more efficiently than natural adenovirus substrates. Recombinant protein substrates also serve as prototypes of potential commercial products, showing that the adenovirus proteinase will remove an artificial leader sequence from a recombinant protein that is not related to any adenovirus protein. The first artificial protein substrate was called HEP1DBP. It consists of a 17 amino acid leader (Met-Ala-Ser-Met-Thr-Gly-His-His-His-His-His-His-Gly-Met-Ser-Gly-Gly-) (SEQ ID NO: 37) attached to the initiating methionine of the 232 amino acid DNA binding protein (DBP), of bacteriophage T7. The T7 DBP is the product of gene 2.5. The recombinant proteinase substrate is produced by induction of a pET expression plasmid called pT7HEP1DBP (also called pT7HIS2) (FIG. 7A and Example 11); the predicted sequence of the expressed substrate is given in Table 1. The leader sequence contains six consecutive histidine residues to permit purification by metal affinity chromatography in a manner analogous to purification of the adenovirus proteinase. Immediately preceding the methionine corresponding to the initiation site of the T7 DBP is the tetra-amino acid element -Met-Ser-Gly-Gly- (SEQ ID NO: 38). This segment corresponds to the proteinase recognition sequence in the adenovirus virion precursor polypeptide pVI. The size of the leader sequence was chosen so that the substrate precursor HEP1DBP, and the predicted major product after cleavage, the T7 DBP, could easily be distinguished by SDS-polyacrylamide gel electrophoresis.\nWhen purified HEP1DBP was incubated with disrupted wild-type adenovirus 2 virions, it was cleaved, as determined from the change in its mobility during SDS-polyacrylamide gel electrophoresis. No cleavage was observed when incubation was with disrupted H2ts1 virions alone.\nPlasmid pT7HEP1DBP (5346 bp) is a pET-3 derivative that expresses the […] T7 gene 2.5 protein (a single-stranded DNA binding protein) attached to a 17-amino acid leader sequence (FIG. 19). The 249-amino acid HEP1DBP polypeptide serves as an artificial substrate for the adenovirus EP; the leader peptide, MASMTGHHHHHHGMSGG- (SEQ ID NO: 37), ends with the Ad2 proteinase recognition sequence -MSGG- (SEQ ID NO: 38) [Anderson, C. […]"}}, "note": "Entries after “also recorded” stand apart in the source; their conditions may differ.", "data": [{"substance": "rEP protein: purified recombinant Ad2 proteinase, an activatable proteinase", "values": [{"measurement": "Rate of substrate hydrolysis by the rEP protein alone", "setting": "[1]; 8.3 nM rEP protein, 1 μM substrate, no cofactors", "value": "less than 0.014 pmol substrate min^-1"}, {"measurement": "Proteinase activity in fluorescence assay", "setting": "[1]; complemented with disrupted H2ts1 virus", "value": "Activity was obtained"}, {"measurement": "Proteinase activity in fluorescence assay", "setting": "[1]; preparation alone", "value": "no activity"}]}, {"substance": "23K6: recombinant wild-type 204/203 amino acid Ad2 proteinase expressed from pT7AD23k6 in E. coli", "values": [{"measurement": "Part of recombinant proteinase that folds into a soluble protein", "setting": "[2]; incubation temperature lowered to 30° at addition of IPTG", "value": "approximately half"}, {"measurement": "Solubility of expressed proteinase", "setting": "[2]; induced bacteria lysed with lysozyme-EDTA, 10,000×g", "value": "majority of the proteinase was found in the insoluble pellet"}, {"measurement": "Stability of processing activity in the bacterial extracts", "setting": "[3]; 37° C.", "value": "about 2 hours"}, {"measurement": "Activity/Conditions", "setting": "[3]; Induced, log phase", "value": "Active"}, {"measurement": "Time by which virtually all of pVII had been converted to VII", "setting": "[3]; bacterial extract, 37° C.", "value": "≤ 2", "unit": "hours"}, {"measurement": "Proteinase activity (cleavage of pVII)", "setting": "[3]; extracts of IPTG-induced, log phase cells", "value": "significant proteinase activity; also recorded: active"}, {"measurement": "Cleavage of HEP1DBP", "setting": "HEP1DBP", "value": "no cleavage"}]}]}
